Measured values published in patent publication US20250042970A1 (AURINIA PHARMACEUTICALS, published 2025).
Numbering of substitutions follows the chain as printed.

T1: FLAG-tagged recombinant human APRIL (human, UniProt O75888 105-250)
T1 construct: KINEXA ligand; also called huAPRIL
T1 sequence: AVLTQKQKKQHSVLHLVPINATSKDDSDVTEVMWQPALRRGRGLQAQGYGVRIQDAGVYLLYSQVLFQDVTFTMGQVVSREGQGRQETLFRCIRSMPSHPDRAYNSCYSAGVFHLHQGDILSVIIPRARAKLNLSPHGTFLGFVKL

T2: FLAG-tagged cynomolgous APRIL (cynomolgus monkey, UniProt A0ACM8R0G4 110-250 (rhesus entry))
T2 construct: FLAG-tagged, expressed with TPA signal peptide; also called cyAPRIL
T2 sequence: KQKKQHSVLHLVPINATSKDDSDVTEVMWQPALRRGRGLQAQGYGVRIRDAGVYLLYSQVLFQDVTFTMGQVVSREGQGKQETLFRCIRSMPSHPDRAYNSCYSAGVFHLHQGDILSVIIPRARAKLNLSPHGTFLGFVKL

B1: Variant BAv8-10-Ig (Fc fusion, human)
chain: AGQCSQNEYFDHLLRACIPCQVRCSSNTPPLTCQRYCNAGVTNSVKGTNAERKSSVECPPSPAPPVAGPSVFLFPPKPKDTLMISRTPEVTCVVVDVSHEDPEVQFNWYVDGVEVHNAKTKPREEQFNSTFRVVSVLTVVHQDWLNGKEYKCKVSNKGLPAPIEKTISKTKGQPREPQVYTLPPSREEMTKNQVSLTCLVKGFYPSDISVEWESNGQPENNYKTTPPMLDSDGSFFLYSKLTVDKSRWQQGNVFSCSVMHEALHNHYTQKSLSLSPGK
notes: domain: Fc; also called Variant 8-10-Ig; BAv8-10-PIg18
B2: Variant BAv9-5-Ig (Fc fusion, human)
chain: B1 chain with H12R, L14V, V22L
notes: domain: Fc; also called Variant 9-5-Ig; BAv9-5-PIg18

Columns and labels:
[1] = molecular target: T1, FLAG-tagged recombinant human APRIL; test: KinExA
FLAG-tagged human BAFF [2] = molecular target: T3, FLAG-tagged human BAFF (human, UniProt Q9Y275 134-285, limits assumed); test: KinExA
T3 construct: used in BIACORE (Ex. 9) and KINEXA (Ex. 11); also called huBAFF

[3] = molecular target: T1, FLAG-tagged recombinant human APRIL; test: KinExA; remark: listed apart in the source
FLAG-tagged human BAFF [4] = molecular target: T3, FLAG-tagged human BAFF; test: KinExA; remark: listed apart in the source
FLAG-tagged human BAFF [5] = molecular target: T3, FLAG-tagged human BAFF; test: BIACORE SPR
Procedure: (§1) For human BAFF, cynomolgus monkey APRIL, and mouse APRIL measurements, mouse monoclonal antibody (IgG1) anti-FLAG M2 (Sigma Aldrich, Cat. No. F1804) was immobilized on CM3 sensor chips (GE Healthcare, Cat. No. BR-1005-41) according to the manufacturer's protocol. Antibody was diluted to 30 μg/ml in immobilization buffer (10 mM pH 5±0.20; GE Healthcare; GE Healthcare, Catalog No. BR-1003-51). […] Unreacted sites were quenched with 35 μl of 1M ethanolamine-HCl, pH 8.5 (GE Healthcare, GE Healthcare, Cat. No. BR-1000-50). This procedure typically yielded 3,000-4,000 response units (RU) of coupled antibody.
(§2) The fusion polypeptides were diluted in HBS-EP buffer and flowed over ligand-coated sensor chips. The variant BCMA-Ig and surrogate control fusion proteins were injected at three concentrations (1.5 nM, 15 nM, and 150 nM at 30 μl/min for 2 minutes per association phase) in a single binding cycle, followed by a 20 minute incubation with HBS-EP buffer containing no protein at the same flow rate. A similar protocol was followed for Z-TACI-Ig, except that the injections were at 4.5 nM, 45 nM, and 450 nM.
(§3) Using available information from the structures and published literature, several residues in BAv8-10 were targeted for substitution with conserved as well as non-conserved residues and their effect on BAFF and APRIL binding was assessed by BIACORE.

[6] = molecular target: T2, FLAG-tagged cynomolgous APRIL; test: BIACORE SPR
Procedure: as §1, §2, §3

FLAG-tagged human BAFF [7] = molecular target: T3, FLAG-tagged human BAFF; test: BIACORE SPR; remark: listed apart in the source
Text: as §1, with “The standard kinetic assay measures binding kinetics of trimeric ligand (e.g., human BAFF, cynomolgus monkey APRIL, mouse BAFF, or mouse APRIL) coated on sensor chips and dimeric analytes (e.g., variant BCMA-Ig fusion proteins) in the mobile phase. […] For” for “For”
as §2
(§4) The analyses described above were performed on protein preparations of representative variant BCMA ECD-Ig fusion polypeptides, as well as the Z-TACI-Ig and [S40G]huBCMA ECD-Ig control fusion polypeptides, and the data is presented in Table 1.

[8] = molecular target: T2, FLAG-tagged cynomolgous APRIL; test: BIACORE SPR; remark: listed apart in the source
Text: as §1, with “The standard kinetic assay measures binding kinetics of trimeric ligand (e.g., human BAFF, cynomolgus monkey APRIL, mouse BAFF, or mouse APRIL) coated on sensor chips and dimeric analytes (e.g., variant BCMA-Ig fusion proteins) in the mobile phase. […] For” for “For”
as §2, §4

membrane-huBAFF = membrane-huBAFF (human, UniProt Q9Y275 1-285); test: cell-based or functional assay

Row | Binder | Selectivity for huAPRIL (KD BAFF/KD APRIL) [1] | Selectivity for huBAFF (KD APRIL/KD BAFF) (FLAG-tagged human BAFF [2]) | fold improvement over control [3] | fold improvement over control (FLAG-tagged human BAFF [4]) | fold improvement over control (FLAG-tagged human BAFF [5]) | fold improvement over control [6] | fold improvement KD vs control (FLAG-tagged human BAFF [7]) | fold improvement KD vs control [8] | IC50 (read off the curve) (NFkappaB luciferase signal of HEK293-huBCMA reporter cells stimulated with HEK-293 cells expressing membrane huBAFF) (membrane-huBAFF)
1 | B1 | 0.3 ratio | 3.33 ratio | 0.05 fold | 233 fold | 13.1 fold | 0.75 fold | 5.3 fold | 0.3 fold | –
2 | B2 | 0.39 ratio | 2.59 ratio | 0.1 fold | 358 fold | – | – | 10.9 fold | 0.5 fold | ~0.5 nM
